Source: the DeepSol protein solubility set

Test: soluble on expression in E. coli; label from the status in PepcDB or PDB records

**Q.** For “MSYRMFDYLVPNVNFFGPNAISVVGERCQLLGGKKALLVTDKGLRAIKDGAVDKTLHYLREAGIEVAIFDGVEPNPKDTNVRDGLAVFRREQCDIIVTVGGGSPHDCGKGIGIAATHEGDLYQYAGIETLTNPLPPIVAVNTTAGTASEVTRHCVLTNTETKVKFVIVSWRNLPSVSINDPLLMIGKPAALTAATGMDALTHAVEAYISKDANPVTDAAAMQAIRLIARNLRQAVALGSNLQAREYMAYASLLAGMAFNNANLGYVHAMAHQLGGLYDMPHGVANAVLLPHVARYNLIANPEKFADIAELMGENITGLSTLDAAEKAIAAITRLSMDIGIPQHLRDLGVKETDFPYMAEMALKDGNAFSNPRKGNEQEIAAIFRQAF”, which “soluble on expression in E. coli” value is on record?
**A.** soluble

**Q.** For “MGSDKIHHHHHHLYINKRPIFLVHGLWNNPKLFEKLIKKINEDDYELYRPHLPHKYGKTSLKRLALDLDSKIEELVGPEIEIDIVGFSMGGLISRFWLQNHDGFLRTKRFFSIGTPHFGTYTAQMIPSFLMPGIAEMKRGSRLLSLLNNDLTSLEKVECTSFFTKWDLMSFPGWQAKLSIGESYHLPVLTHKELITNSSSLDILVKKIFKNS”, which “soluble on expression in E. coli” value is on record?
**A.** not soluble

**Q.** With “MSSQQQESEASGYNTSASSEFGSLEDSHQFVSPVTRHASKRRAVENVDHLDELMKSSMVLSPEKRLRLNTSNDSNLVRNTARSPDSSMNGRPQTRRSTSSDIEISPRVRAMRSTSGSSMDLVRTVSSFCTDSISPKFFTNHGSTTRKRTENGSIYSRHRLGATFSPLVAGAKRKMATPSQSLKRQEKQSPLESRHGGLRSRGTPQRKLLLCDRLKVLN” as the sequence, how does the “soluble on expression in E. coli” value read?
**A.** not soluble

**Q.** Which “soluble on expression in E. coli” value does the source give for “IFNVPFGLNINLLPQYHMYTTQEAKDKIYYYSGNKVGFDIGASAQIGYMWQVTDNFGISLLGELGYSFDSFNANFDTAKVENPNDITGQIDAPEGTQKLGSASFYTHNLKIGILPKFNIKAFSIGIGLGIIVPMAITQNWKDEAAKTLFKDASTKFMSSVGFYGKLTFDYSIFFTEKIAMNIGLYTGVDAIGSINTTINNTSLNQGAHSEAPLLSYDIGLQLGFRFGPKAFN” here?
**A.** not soluble

**Q.** Which “soluble on expression in E. coli” value does the source give for “MSLTETCDRFALIGAGPMGLAMAKVMLEQGIAFDGFELHSDVGGLWDIDGPRSTMYESAHLISSKRMTEFTDFPMEEAVAEYPSHRELKRYFHAFAARYGLRDHYRFGAEVLRCEPLGEPGAGWRVIWRDAEGEHTETYAGVMIANGTLSEPNMPTFQGRFDGELIHSSAYRHPSQFDGKRVLIVGAGNSGCDIAVDAIHHGALCDLSMRRGYYFVPKYVFGKPADTLGGMIKLPMWLKRRVDGMILKWFVGDPQKYGFPKPDYQLYESHPVVNSLVLYHAGHGDLRIRPDIDRFDGRRVIFADGSSEEYDMILAATGYKLFYPFIDRDLLNWQGDAPHLYLNALHPERDDLFVLGMIEASGLGWQGRHEQAEMVARYITGLRRGGAAAAELKAAKSAGFERATGGMNYLKLARMAYYVDKATYRGAVTGWIDRLKRAQSEGHHHHHH” here?
**A.** soluble

**Q.** Which “soluble on expression in E. coli” value does the source give for “MSLSEPSVQADTRLNALIVQDIPERMPIYRALIEQLDVPSTLIEIEAMIVDVNTDLVNELGVTWGAQIGTTSLGYGDLGLRPGNGLPVDGAAAELAPGTLGISVSTRLAARLRALESDGQANILSQPSILTADNLGAMIDLSDTFYIRTLGERVATVTPVTVGTSLRVTPRYIAAKGGRQVELAIDIEDGRVLQEYPIDGLPRVRKSSISTLAVVGDEQTLLIGGYNNRRDEEQVEKVPLLGDIPGLGFLFSSKSRAVQRRERLFLIRPRVVAIEGKPVFSPVAGTSQVFMSTEGHHHHHH” here?
**A.** soluble

**Q.** Which “soluble on expression in E. coli” value does the source give for “MKKRILAVAVTSMLLSASVFAQETVVPSRVGDLKFESDFPTQETMKNMLNEMDFQRATQAYLWGIPASSIMEWLNVSRNDFKFEEGQMGFFNTLKQKQGIITANFTTPYVIGTWNLEKTGPLIINLPEAKMAGMMLDVHQRVLSDLSLLGPDKGKGGKYLIVPPGEKYKDLNPKGYYVIRPKTNVVYGGIRILEPDVDRVVKQVVPNITTQPYADGKLGRKIPVAQVPEIDWTHIPKDGLEYWKTIHQIIQENPVEERDRFVMAQLKFLGIEKGKPFNPTEEQKKILLEASKVGRAMAQSNDYTKRFTQPYWKGTNWKDAISVSLDQRSENYDELDERAAWFYEAITVSRGMKSTIPGFGQRYLVTYQDSDGNWLSGEHTYKLHVPANVPASNFWSTTVYDENNRLMIINDAGSPDISSRKNLKVNSDGSIDVYYGPKPVKGYENNWVQTNPGEGWFTYFRFYGPTEKMFDKSWTMGDIELVKLEHHHHHH” here?
**A.** soluble

**Q.** With “MAHHHHHHMAPSELHKLSYWEEVYQGEKENYEEANIQPEEWFEENCDKIINWMSNHFSEEEKKEQVAILDVGCGNGLFLHKLHQRGFGNLCGFDFSASAIELAKKLFVGCGGEGEEDSRINRGEEPTDVYVQVLDIYNIEDEIKENSKLKKKYKLINDKGTFDIFFMNDKAQEYFKHVSFFFQVDTIFCLTSCNACKEELLSIVNHFNETNGKFQLTLFDEIRYESITFGGVKGQIITTLIFACS” as the sequence, how does the “soluble on expression in E. coli” value read?
**A.** soluble

**Q.** With “MSLADLEEALLIIDSDEDVSRHMKEHLTSRGFHVVHCASVKCFTDLKAQVTPDIIIGDLTSDDIKSLYSLLKDVHPRPPIVIHSKRADAENILGALRSGASDYIVKPVADVAVLDEAIQRQIDQVRVYRENQQYRYDLELANKELRAGLEELQADQRAGRHVQMKMLPEREVEYGGIQFDHCIKPSLYLSGDFFDYFRLSSDKIAFYFADVSGHGASSAFVTVLLKNLSNRLQRNLRRQSSDDILYPDRFLKRVNAELLDTDLGKHLTMFAGVIDLQTRVLSYSMGAHFPMPVMSVNGVSRYLDGKGPPVGLFDDPVYPLYEEPLAPGFSLVICSDGLLEVINAKSLAEKEQALLETVQEARHTIPELEKAFGLRWITELPDDIAIVSIMETTEGHHHHHH” as the sequence, how does the “soluble on expression in E. coli” value read?
**A.** soluble

**Q.** For “MTVGGMQPVSIMGKHLNNFERLSILEDYLSGSDSKVAIEQKYGLSHGLIRSWLSKFGLEDKVHPVPMKVSQSPQSELPLNEKEELEQLRKENRVLKSRLKREELGHQAYKLLVELAEETYGIQIRKNSEAK”, which “soluble on expression in E. coli” value is on record?
**A.** not soluble

**Q.** With “MKIAVVGAGLTGLKTAKELAEHAKVVVFEPDDVGGLVATFREFSIEKFYHHCFRDDAFLLEEIKRCGLKSKLVWKIAKTGFAANGKIYPLNTPFEILRYPLLTFGEKIRLARFTLKSRKLNYEDFDDVGVSEGIREELGEGLLERFFMPLLRSKFGENAEKVSYAWLLGRVAIRSNRKYSGEEIGYIRHGFQQLVDKMAEGLEIRRERARIRKNARWDVNGEDFDAVVYTAPLSELGELAEKLGIPEVRYQSSVCALIGAEETLTENIYWTNIADKMSFGAVIEHTNFMPFEDYGIHLMYLAAYSTPDGWLFNLSDKEIEKLFLSDLRKLGFKTESVRFVRVFKAKYSGPIYEKGYRRKITPYRVAEGFYVAGMTSRPNYPERSMNGSIRAGKEVAEQVKEDLLLEHHHHHH” as the sequence, how does the “soluble on expression in E. coli” value read?
**A.** soluble

**Q.** With “MGSDKIHHHHHHMLTVSDVSLRFSDRKLFDEVNINFTAGNTYGLIGANGAGKSTFLKILAGDIEPTTGHIALGPDERLSVLRQNHFDYEDERVIDVVIMGNETLYSIMKEKDAIYMKEDFSDEDGVRAAELEGEFAELGGWEAESEASQLLQNLNISEELHYQNMSELANGDKVKVLLAKALFGKPDVLLLDEPTNGLDIQSITWLEDFLIDFENTVIVVSHDRHFLNKVCTHMADLDFGKIKLFVGNYDFWKESSELAARLQADRNAKAEEKIKQLQEFVARFSANASKSKQATSRKKMLDKIELEEIVPSSRKYPFVNFKAEREMGNDLLTVENLSVTIDGEKILDNISFILRPGDKTALIGQNDIQTTALIRALMGDIEYEGTIKWGVTTSRSYLPKDNSRDFASGESILEWLRQFASKEEDDNTFLRGFLGRMLFSGDEVNKSVNVLSGGEKVRVMLSKLMLLKSNVLVLDDPTNHLDLESISSLNDGLKDFKESIIFASHDHEFIQTLANHIIVLSKNGVIDRIDETYDEFLENTEVQAKVAQLWK” as the sequence, how does the “soluble on expression in E. coli” value read?
**A.** not soluble

**Q.** For “MPVVYKRILLKLSGEALMGDGHYGIDRAVVEHIVVEVAGVLQLGVEVAIVVGGGNIFRGMKSAGDGMDRVTADYMGMLATTMNALALHDAMRRNGVVSRVQSALRIDQVVEPYVRGKALRYLDERKVVVFAAGTGNPFFTTDTAAALRGMEMNANIVLKATKVDGIYTSDPLKNKDAQRFQSLTFDEAISKNLQVMDATALTLCRDQKLPINVFSIFKTGALKRVIMGEDEGTSVFV”, which “soluble on expression in E. coli” value is on record?
**A.** not soluble

**Q.** Which “soluble on expression in E. coli” value does the source give for “MSLNGSRRIPQPIRWAMVGGGSQSQIGYIHRCAALRDNTFVLVAGAFDIDPIRGSAFGEQLGVDSERCYADYLSMFEQEARRADGIQAVSIATPNGTHYSITKAALEAGLHVVCEKPLCFTVEQAENLRELSHKHNRIVGVTYGYAGHQLIEQAREMIAAGELGDVRMVHMQFAHGFHSAPVEAQSQATQWRVDPRQAGPSYVLGDVGTHPLYLSEVMLPDLKIKRLMCSRQSFVASRAPLEDNAYTLMEYEGGAMGMVWSSAVNAGSMHGQKIRVIGSRASLEWWDERPNQLSFEVQGQPAQILERGMGYLHPNALIDDRIGGGHPEGLFEAWANLYYRFALAMDATDRSDTQALSAVRYPGIDAGVEGVRWVERCVLSADNDSIWVAYEGHHHHHH” here?
**A.** soluble

**Q.** Which “soluble on expression in E. coli” value does the source give for “MGSDKIHHHHHHMPVYLYYGEDTYSLNQKIDHLVNQNVHAEWKDFNYIKLSGNEKNIAAKVFTEVMTLPFGEGNKIVHTDSDHLIGSLSNEDNNQELENQLSRIPASNILLITSNKKPDSRRTVVKTILKYAQQEEFPLVPCWDKKGIVNLIGKYAAIHQVKFTPDVTDYLVEAIGNNTARVDSEFAKLAVYASEKIISLEEIKQLVSNHNTDYQKLTIAMLRNHSNLAIAQVDKLLDSNEHPLKIVATLTSFFRTWLITKAGVEARLSDIKIAEIAEVKNPKRLYYLKDEIKFVGVQKLKNSLTLLLQLETELKSGTNNLISRIIEICMI” here?
**A.** not soluble

**Q.** With “MGSDKIHHHHHHMKILFISSLYAPDIGGGAEIILQRTVEGLQQRGYSIAVLATTDRPGLQLAEVNRVKVYRAGLLNQYWHFMPQRPERLARFAWHWRDRYNGGMRDYVRQVIELEQPELVVCHNLTGWSVSAWDEITRANRPVVQVLHDLYLLCPSSTMFKKGQSCQRQCSLCTQFRKHHAQQSEQVSTVVGVSRFMLDTLQAQGYFKGARGYVVHNASPFTPPHAGQTKAADDTAPLRFGYLGTLSENKGVGWLINQFQHLPFKATLQIAGRGQSNDEKRFRAMATSPDISFVGFQKPEDFYQHIDVAIVPSMWNEPFGLVAVEACAHSRPVIASRMGGLPEIIQDQLNGLLCSPDDPDSLGLAMLKLHQQPELLARLGSQARNSVASLLNLDLMLDQYESIFAQTLQDRSTWHGERVQLDPG” as the sequence, how does the “soluble on expression in E. coli” value read?
**A.** not soluble

**Q.** For “MARSRGSSRPISRSRPTQTRSASTMAAPVHPQQQQQPNAYSHPPAAGAQTRQPGMFAQMASTAAGVAVGSTIGHTLGAGITGMFSGSGSDSAPVEQQQQNMANTSGQTQTDQQLGRTCEIDARNFTRCLDENNGNFQICDYYLQQLKACQEAARQY”, which “soluble on expression in E. coli” value is on record?
**A.** soluble

**Q.** With “MTRYLDISLGIVRDYYEAAPVKVVFVKDHPRLPTPGGIINARRGDEVELPRWQARMLREKGYVEYKEKIVDIDYVNLVHYHEVKKSAANSLLGVPSDFYLRVKELVEDLDRRIRENPGYMLFQDRENVERAIMQISERRLVKMMRLVLSGGGEEVRERLTVEENLVYSMAEEVVKGWKEYVKSLVGRR” as the sequence, how does the “soluble on expression in E. coli” value read?
**A.** not soluble
